Measured values taken from patent US20250092146A1, “ANTI-CCR8 ANTIBODIES, CONJUGATES, AND USES THEREOF” (Abilita Bio, Inc., priority 2023, published 2025).

Target: T1, HuT-78 cells that naturally express human CCR8 (Homo sapiens, UniProt P51685)
T1 construct: HuT-78 cells that naturally express human CCR8 were used as target cells; endogenous in cells; host or cells: HuT-78
Assay: Flow cytometry binding of yeast-display optimized VHH-Fc antibodies to HuT-78 cells
Conditions: Table 13; for EC50: clones tested as VHH-Fc fusions (human IgG1 Fc), HuT-78 cells; for Normalized Bmax (%): normalized to VHH-1 or VHH-2 depending on clone family
From the text: Top VHH sequences were chosen from the FACS sorted populations based on an analysis of improved binding performance relative to the parental sequences and evidence of sequence enrichment by NGS. Candidate VHH were then cloned as VHH-Fc fusions to the short hinge of the IgG1 Fc domain (SEQ ID NO: 34), expressed in HEK293 cells as described earlier and purified for binding evaluation. Bmax values are shown as normalized to VHH-1 or VHH-2 depending on the clone family. […] Mutations are referenced by position according to the IMGT definition.

T1 sequence (P51685 whole entry): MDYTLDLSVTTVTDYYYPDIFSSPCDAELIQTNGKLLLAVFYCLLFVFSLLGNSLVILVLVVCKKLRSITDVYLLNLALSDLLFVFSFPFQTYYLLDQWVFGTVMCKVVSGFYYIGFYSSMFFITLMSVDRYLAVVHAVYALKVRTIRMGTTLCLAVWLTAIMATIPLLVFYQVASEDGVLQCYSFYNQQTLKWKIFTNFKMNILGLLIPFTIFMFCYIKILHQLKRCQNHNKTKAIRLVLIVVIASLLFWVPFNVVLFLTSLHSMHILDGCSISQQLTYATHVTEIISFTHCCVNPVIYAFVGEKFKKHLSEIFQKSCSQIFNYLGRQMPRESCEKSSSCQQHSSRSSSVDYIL

| Molecule | EC50 [nM] | Normalized Bmax (%) |
| --- | --- | --- |
| VHH-1.3-3: VHH-1.3 variant I39Y, G40S, R55W, SEQ ID NO: 188; tested as Fc fusion (protein) VHH: EVQLVESGGGLVQPGGSLRLSCAASGSTSSIRRYSWYRQAPGKGRELVAWFSSGGGTNYADSVKGRFTISGDNSKNTMYLQMNSLRAEDTAVYYCSARRLLGTSRVDYWGQGTQVTVSS | 1.81 | 104.4 |
| VHH-1.3-4: VHH-1.3 variant R38T, R108I, SEQ ID NO: 189; tested as Fc fusion (protein) VHH: EVQLVESGGGLVQPGGSLRLSCAASGSTSSIRTIGWYRQAPGKGRELVARFSSGGGTNYADSVKGRFTISGDNSKNTMYLQMNSLRAEDTAVYYCSARILLGTSRVDYWGQGTTVTVSS | 7.68 | 82.4 |
| VHH-1.3-5: VHH-1.3 variant R55G, SEQ ID NO: 190; tested as Fc fusion (protein) VHH: EVQLVESGGGLVQPGGSLRLSCAASGSTSSIRRIGWYRQAPGKGRELVAGFSSGGGTNYADSVKGRFTISGDNSKNTMYLQMNSLRAEDTAVYYCSARRLLGTSRVDYWGQGTTVTVSS | 4.42 | 90.1 |
| VHH-1.3-6: VHH-1.3 variant R55H, SEQ ID NO: 191; tested as Fc fusion (protein) VHH: EVQLVESGGGLVQPGGSLRLSCAASGSTSSIRRIGWYRQAPGKGRELVAHFSSGGGTNYADSVKGRFTISGDNSKNTMYLQMNSLRAEDTAVYYCSARRLLGTSRVDYWGQGTTVTVSS | 3.75 | 97.0 |
| VHH-1.3-7: VHH-1.3 variant A25V, R55H, N82K, SEQ ID NO: 192; tested as Fc fusion (protein) VHH: EVQLVESGGGLVQPGGSLRLSCAVSGSTSSIRRIGWYRQAPGKGRELVAHFSSGGGTNYADSVKGRFTISGDKSKNTMYLQMNSLRAEDTAVYYCSARRLLGTSRVDYWGQGTTVTVSS | 0.56 | 111.8 |
| VHH-1.3-10: VHH-1.3 variant T65I, L110V, SEQ ID NO: 195; tested as Fc fusion (protein) VHH: QVQLQESGGGLVQPGGSLRLSCAASGSTSSIRRIGWYRQAPGKGRELVARFSSGGGINYADSVKGRFTISGDNSKNTMYLQMNSLRAEDTAVYYCSARRLVGTSRVDYWGQGTQVTVSS | 1.3 | 125.4 |
| VHH-1.3-11: VHH-1.3 variant G64T, SEQ ID NO: 196; tested as Fc fusion (protein) VHH: QVQLQESGGGLVQPGGSLRLSCAASGSTSSIRRIGWYRQAPGKGRELVARFSSGGTINYADSVKGRFTISGDNSKNTMYLQMNSLRAEDTAVYYCSARRLLGTSRVDYWGQGTQVTVSS | 0.61 | 79.6 |
| VHH-1.3-12: VHH-1.3 variant S28F, G64T, L110Y, SEQ ID NO: 197; tested as Fc fusion (protein) VHH: EVQLVESGGGLVQPGGSLRLSCAASGFTSSIRRIGWYRQAPGKGRELVARFSSGGTTNYADSVKGRFTISGDNSKNTMYLQMNSLRAEDTAVYYCSARRLYGTSRVDYWGQGTQVTVSS | 1.24 | 79.6 |
| VHH-1.3-13: VHH-1.3 variant A25V, R38G, S57I, SEQ ID NO: 198; tested as Fc fusion (protein) VHH: EVQLVESGGGLVQPGGSLRLSCAVSGSTSSIRGIGWYRQAPGKGRELVARFISGGGTNYADSVKGRFTISGDNSKNTMYLQMNSLRAEDTAVYYCSARRLLGTSRVDYWGQGTQVTVSS | 0.38 | 91.1 |
